This assay deals with KLF4 (UniProt Q60793). Kind of assay: anti-HA co-IP, STAT3 blot. Conditions: reference: wild-type FLAG-STAT3; sites Y705.

For the substance STAT3 (from UniProt P42227) Y705F, the “binding against the reference” value is listed as “lost”.

(Values after paper PMC3867821.)
